The values that follow come from US7977082B2, “Isomaltulose synthases, polynucleotides encoding them and uses therefor” (The University of Queensland of St. Lucia, priority 2001, dated 2011).

Data set [1] deals with T1, Pantoea dispersa 68J sucrose isomerase (SI), mature, SEQ ID NO: 10, carboxy-terminal 6×His tag (SEQ ID NO: 52) (Pantoea dispersa, UniProt Q6XNK6).
T1 sequence (Q6XNK6 34-598): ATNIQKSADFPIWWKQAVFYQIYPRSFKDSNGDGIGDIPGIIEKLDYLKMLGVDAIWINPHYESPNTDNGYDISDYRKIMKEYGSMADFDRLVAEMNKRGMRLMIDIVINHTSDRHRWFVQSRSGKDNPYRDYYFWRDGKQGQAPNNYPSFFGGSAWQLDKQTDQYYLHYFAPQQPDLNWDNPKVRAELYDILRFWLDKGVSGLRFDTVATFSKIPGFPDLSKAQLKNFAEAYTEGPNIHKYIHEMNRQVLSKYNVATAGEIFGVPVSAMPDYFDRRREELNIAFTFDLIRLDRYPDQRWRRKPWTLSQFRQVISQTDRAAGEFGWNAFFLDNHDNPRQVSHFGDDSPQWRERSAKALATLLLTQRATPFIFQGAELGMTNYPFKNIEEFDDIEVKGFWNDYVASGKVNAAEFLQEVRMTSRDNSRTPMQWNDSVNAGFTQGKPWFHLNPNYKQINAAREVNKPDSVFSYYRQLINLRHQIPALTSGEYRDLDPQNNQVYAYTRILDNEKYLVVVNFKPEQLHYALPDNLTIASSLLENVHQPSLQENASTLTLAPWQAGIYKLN
Briefly: Sucrose isomerase kinetics, purified SI from P. dispersa 68J (isomaltulose production), with or without glucose/fructose. It is filed as biochemical. The note with it: sucrose, isomaltulose production. The procedure:
(§1) The pET24b vector introduces a carboxy-terminal 6×His tag (SEQ ID NO: 52) on expressed proteins, which were purified by adsorption to Ni-NTA agarose (Qiagen) and elution with 25 mM NaH2PO4, 150 mM NaCl, 125 mM imidazole buffer (pH8.0) following the manufacturer's instructions. For storage, the eluted solution was diluted with 50% glycerol. The purity of SI proteins was tested by SDS-PAGE as described below. A batch procedure using Ni-NTA agarose in suspension yielded predominantly (80-95%) SI with a background of several other protein bands. A procedure using Ni-NTA agarose in adsorption columns yielded preparations containing a single protein band. Unless otherwise specified, this is the form of the purified SI enzymes used for biochemical characterisation.
(§2) Enzyme activities were measured by incubating 5 μl of purified enzyme with 95 μL of sucrose solution at a final concentration of 584 mM in 0.1 M citrate/phosphate buffer (pH 6.0) at 30° C. Sugar profiles in the reaction mix were analysed at intervals by CE as described previously. One unit (U) of SI activity was defined as the amount of enzyme that could release 1 μmol of isomaltulose in one minute at the initial stage of the reaction.
(§3) SI activity was measured by incubating the purified enzyme with different sucrose concentrations (3, 6, 15, 58, 146, 292, 584, 877, 1169 and 1461 mM) under standard assay conditions, and also with addition of glucose, fructose or both to a final concentration of 277 mM. Data were analyzed according to the method of Lineweaver and Burk (Voet and Voet, 1995) to calculate Km and Vmax values.

Data set [2] deals with T2, Klebsiella sp. 14S sucrose isomerase (SI), carboxy-terminal 6×His tag (SEQ ID NO: 52) (Klebsiella planticola, UniProt Q6XKX6).
T2 sequence (Q6XKX6 29-598): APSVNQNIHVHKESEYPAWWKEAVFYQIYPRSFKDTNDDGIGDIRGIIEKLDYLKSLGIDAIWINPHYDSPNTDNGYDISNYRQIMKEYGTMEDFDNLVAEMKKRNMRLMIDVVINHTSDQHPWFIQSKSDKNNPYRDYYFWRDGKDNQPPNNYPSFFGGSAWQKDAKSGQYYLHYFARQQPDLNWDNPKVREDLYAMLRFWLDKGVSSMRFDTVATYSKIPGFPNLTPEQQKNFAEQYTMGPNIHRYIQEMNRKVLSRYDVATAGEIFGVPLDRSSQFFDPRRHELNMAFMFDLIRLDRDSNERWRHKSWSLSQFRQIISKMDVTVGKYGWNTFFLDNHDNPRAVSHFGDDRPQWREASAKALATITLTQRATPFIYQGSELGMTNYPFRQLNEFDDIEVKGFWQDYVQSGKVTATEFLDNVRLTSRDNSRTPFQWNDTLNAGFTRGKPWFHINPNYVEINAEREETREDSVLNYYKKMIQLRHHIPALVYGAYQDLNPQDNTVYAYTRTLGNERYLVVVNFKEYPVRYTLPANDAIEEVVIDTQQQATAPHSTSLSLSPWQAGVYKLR
Description: Sucrose isomerase kinetics, purified SI from Klebsiella sp. 14S (isomaltulose production), with or without glucose/fructose. The note with it: sucrose, isomaltulose production, pH 6.0, 30° C., Lineweaver and Burk. It is filed as biochemical. How it is done:
as §1, with “Unless otherwise specified, this is the form of the purified SI enzymes used for biochemical characterisation.” left out
Enzyme activities were measured by incubating 5 μl of purified enzyme with 95 μL of sucrose solution at a final concentration of 584 mM in 0.1 M citrate/phosphate buffer (pH 6.0) at 30° C. Sugar profiles in the reaction mix were analysed at intervals by CE as described previously. […]
as §3

Data set [3] concerns Klebsiella sp. LX3 sucrose isomerase. The note with it: isomaltulose product; Zhang et al. 2002; cited from earlier work.
Data set [4] deals with Klebsiella sp. sucrose isomerase. The note with it: isomaltulose product; Park et al. 1996; cited from earlier work.
The test system of data set [5] is Serratia plymuthica ATCC 15928 sucrose isomerase. The note with it: isomaltulose product; Véronèse & Perlot 1999; cited from earlier work.
Data set [6] concerns Pseudomonas mesoacidophila MX-45 sucrose isomerase. The note with it: trehalulose product; Nagai et al. 1994; cited from earlier work.
The nature of data set [7]: Conversion of sucrose into isomaltulose by E. coli cells expressing cloned SI genes. The data set is classed as cell-based. How it is done:
The three sucrose isomerase genes in the pCR®2.1 vector were cut and cloned into pGEM®-3Zf(+) then into pET 24b vector (Novagen) for expression in E. coli BL21(DE3) strain. Five mL LB medium with 50 μg/mL kanamycin was used for the BL21(DE3) cell culture. Fifteen cultures per construct were set up initially. Cells were grown at 37° C. at 225 rpm shaking. Six to ten cultures per construct, with OD600 1.000±0.005, were selected for further induction. After 0.5 mL was sampled from each culture, IPTG was added to the culture to a final concentration of 1.0 mM. Incubation of the cultures was continued for another 3 hours. The induced cultures only with OD600 1.750±0.005 were further selected for sucrose conversion analysis and protein measurement, allowing analysis of three replicate cultures per construct. From each of the selected IPTG-induced cultures, 1.5 mL was sampled for protein quantification, 0.5 mL for protein SDS-PAGE, 1.0 mL for quantification of conversion efficiency from sucrose into isomaltulose.
The 1.0 mL culture was centrifuged, then resuspended in citrate/phosphate (pH 6.0) buffered 50% sucrose solution and assayed for isomaltulose conversion by CE analysis as described above. Conversion ratio was calculated by sucrose peak area and isomaltulose peak area normalised against standards of known concentration, using the software of Beckman P/ACE 5000 Series C.E. System.
Fifteen cultures per construct were set up in 5 mL LB medium (Sambrook and Russell, 2001) with 50 μg/mL kanamycin in a 30 mL universal tube. Cells were grown at 37° C. at 225 rpm shaking. Six to ten cultures per construct, with OD600=1.00 were selected for further induction. After 0.5 mL was sampled from each culture, IPTG was added to a final concentration of 0.5 mM and incubation of the cultures was continued for another 3 h at 28° C. This allowed selection of three replicate cultures per construct with the same OD600 for sucrose conversion analysis and protein measurement. From each of the selected cultures, 1.5 mL was sampled for protein quantification, 0.5 mL for protein SDS-PAGE, and 1.0 mL for quantification of conversion efficiency from sucrose into isomaltulose. For SI protein purification experiment, the culture volume was scaled up to 25 mL in a 250 mL flask.
The 1.0 mL culture sample was centrifuged at 12,000×g for 1 min, then resuspended in 5 mL of 0.1 M citrate/phosphate (pH 6.0) buffered 50% sucrose solution and incubated for 4 h at 37° C. with 225 rpm shaking. Conversion ratio was calculated from sucrose and isomaltulose peak areas normalised against standards of known concentration, using a Beckman P/ACE 5000 CE as described previously herein.

Data set [8] can be described thus: Assay of isolated (purified) SI enzyme activity. The data set is classed as biochemical. The procedure: as §1, §2
The enzymes were incubated with sucrose at different pH ranging from 2.0 to 10.6. The solution of pH 2.0 was buffered in 0.2 M KCl; pH 3.0 to pH 9.0 were in 0.1 M citrate/phosphate buffer; pH 10.0 to pH 10.6 were in 0.2 M glycine buffer. The effect of temperature from 10° C. to 70° C. was measured at pH 6.0. […]

Data set [9] can be described thus: Storage stability of purified SI proteins. The data set is classed as physicochemical. The procedure:
The purified fresh enzymes from SDS-PAGE had specific activities for isomaltulose production of: E. rhapontici: 35 U mg^−1 protein, Klebsiella sp.: 95 U mg^−1 protein and P. dispersa: 632 U mg^−1 protein. The purified SI from E. rhapontici lost function during overnight storage at −20° C. in elution buffer diluted with 50% glycerol. In contrast, the purified enzymes from 14S or P. dispersa retained 100% of the fresh enzyme efficiency for isomaltulose production after 6-month storage at −20° C., or 60% after 15-day storage at room temperature in the same buffer. Because of instability, the E. rhapontici SI was not characterised further in purified form. Cheetham et al., (1984) found substantial differences between E. rhapontici strains for SI stability in immobilized cells, and the enzyme from strain NCPPB 1578 was stable in purified form (Cheetham, 1984).
as §1

The nature of data set [10]: Isomaltulase activity of the purified enzyme. The data set is classed as biochemical. The note with it: 50 mM isomaltulose, 30° C., 30 minutes, pH 3.0 to 7.0. How it is done: (§4) Isomaltulase activity of the purified enzyme was investigated by incubation with 50 mM isomaltulose at 30° C. for 30 minutes at each of pH 3.0, 4.0, 5.0, 6.0 and 7.0. Glucose and fructose were tested as substrates under the same reaction conditions.

Data set [11] in a line: Glucose and fructose tested as substrates of the purified enzyme. The note with it: 30° C., 30 minutes, pH 3.0 to 7.0. It is filed as biochemical. The procedure: as §4
Setting [12] is: E. coli, pET 24b, same expression conditions.

On to `OC[C@H]1O[C@@](CO)(O[C@H]2O[C@H](CO)[C@@H](O)[C@H](O)[C@H]2O)[C@@H](O)[C@@H]1O` [sucrose, α-D-glucosyl-1,2-D-fructose], for which the Vmax was 637 μmoles isomaltulose/mg protein/min in data set [1]; 637 U mg^−1 in [1] (pH 6.0, 30° C., Lineweaver and Burk); 100 U mg^−1 in data set [2]; 110 U mg^−1 in [4]; 120 U mg^−1 in data set [5]. Besides, the Michaelis constant (Km) – broadly, the concentration of substrate that gives half-maximal velocity – is 54.6 mM in [3], 65 mM in data set [5] and 19.2 mM in data set [6].

B1: P. dispersa SI: sucrose isomerase cloned from bacterial isolate 68J, SEQ ID NO: 8, mature polypeptide SEQ ID NO: 10 (protein)
chain: MFLNGFKTVIALTMASSFYLAASPLTKPSTPIAATNIQKSADFPIWWKQAVFYQIYPRSFKDSNGDGIGDIPGIIEKLDYLKMLGVDAIWINPHYESPNTDNGYDISDYRKIMKEYGSMADFDRLVAEMNKRGMRLMIDIVINHTSDRHRWFVQSRSGKDNPYRDYYFWRDGKQGQAPNNYPSFFGGSAWQLDKQTDQYYLHYFAPQQPDLNWDNPKVRAELYDILRFWLDKGVSGLRFDTVATFSKIPGFPDLSKAQLKNFAEAYTEGPNIHKYIHEMNRQVLSKYNVATAGEIFGVPVSAMPDYFDRRREELNIAFTFDLIRLDRYPDQRWRRKPWTLSQFRQVISQTDRAAGEFGWNAFFLDNHDNPRQVSHFGDDSPQWRERSAKALATLLLTQRATPFIFQGAELGMTNYPFKNIEEFDDIEVKGFWNDYVASGKVNAAEFLQEVRMTSRDNSRTPMQWNDSVNAGFTQGKPWFHLNPNYKQINAARXVNKPDSVFSYYRQLINLRHQIPALTSGEYRDLDPQNNQVYAYTRILDNEKYLVVVNFKPEQLHYALPDNLTIASSLLENVHQPSLQENASTLTLAPWQAGIYKLN
modifications: not fully specified; X: residue not identified in the source
B1: in data set [7] (setting [12]), the “conversion efficiency from sucrose to isomaltulose, times that of the 14S (Klebsiella sp.) gene product/clone” value was 18 times and the “conversion efficiency from sucrose to isomaltulose, times that of the Erwinia rhapontici gene product/clone” value was 10 times. In addition, the “proportions of glucose and fructose generated” value in data set [7] (compared with 14S (Klebsiella sp.) and Erwinia rhapontici SIs) was “smaller proportions of glucose and fructose”. In data set [7] (intact cell assay, estimated), the “efficiency of the soluble enzyme, times that of the Erwinia and Klebsiella enzymes” value is listed as 6-38 times. In data set [8] (from pH 4 to 8), the “monosaccharides, share of the products” value is recorded as “less than 20%”. Besides, in data set [8] (purified SI), the “activity at 10° C., of activity at optimal temperature” value was 15%; the “activity at 60° C.” value is “still active”; the “isomaltulose production at pH 3 and pH 8” value is given as “some isomaltulose was still produced”; the “optimal pH for isomaltulose production” value came to 5. The “time until all sucrose was converted” value in [8] (purified SI) was at most 45 min. Moreover, the “sucrose converted to isomaltulose (of consumed sucrose)” value in data set [8] (purified SI, complete conversion, remainder glucose and fructose) was 91%. The “optimal temperature for isomaltulose production” value in data set [8] (purified SI, pH 6.0) was 37 °C. The “specific activity for isomaltulose production” value in data set [8] (purified fresh His-tagged enzymes) amounted to 632 U mg^−1 protein. In addition, the “fresh enzyme efficiency for isomaltulose production retained” value in [9] (6-month storage at −20° C., elution buffer with 50% glycerol) was 100%. Moreover, the “fresh enzyme efficiency for isomaltulose production retained” value in data set [9] (15-day storage at room temperature, same buffer) is reported as 60%. Moreover, the hydrolysis of isomaltulose entry in data set [10] is recorded as “did not hydrolyse isomaltulose”. The “product from glucose and fructose as substrates” value in [11] was “no product was detected”.
